Legend:
Test in all cases: cleavage_in_vitro
[1] = system: T1, OMNI-133 (metagenomic, unknown); settings: TXTL; PAM NNTAMCNN
T1 sequence: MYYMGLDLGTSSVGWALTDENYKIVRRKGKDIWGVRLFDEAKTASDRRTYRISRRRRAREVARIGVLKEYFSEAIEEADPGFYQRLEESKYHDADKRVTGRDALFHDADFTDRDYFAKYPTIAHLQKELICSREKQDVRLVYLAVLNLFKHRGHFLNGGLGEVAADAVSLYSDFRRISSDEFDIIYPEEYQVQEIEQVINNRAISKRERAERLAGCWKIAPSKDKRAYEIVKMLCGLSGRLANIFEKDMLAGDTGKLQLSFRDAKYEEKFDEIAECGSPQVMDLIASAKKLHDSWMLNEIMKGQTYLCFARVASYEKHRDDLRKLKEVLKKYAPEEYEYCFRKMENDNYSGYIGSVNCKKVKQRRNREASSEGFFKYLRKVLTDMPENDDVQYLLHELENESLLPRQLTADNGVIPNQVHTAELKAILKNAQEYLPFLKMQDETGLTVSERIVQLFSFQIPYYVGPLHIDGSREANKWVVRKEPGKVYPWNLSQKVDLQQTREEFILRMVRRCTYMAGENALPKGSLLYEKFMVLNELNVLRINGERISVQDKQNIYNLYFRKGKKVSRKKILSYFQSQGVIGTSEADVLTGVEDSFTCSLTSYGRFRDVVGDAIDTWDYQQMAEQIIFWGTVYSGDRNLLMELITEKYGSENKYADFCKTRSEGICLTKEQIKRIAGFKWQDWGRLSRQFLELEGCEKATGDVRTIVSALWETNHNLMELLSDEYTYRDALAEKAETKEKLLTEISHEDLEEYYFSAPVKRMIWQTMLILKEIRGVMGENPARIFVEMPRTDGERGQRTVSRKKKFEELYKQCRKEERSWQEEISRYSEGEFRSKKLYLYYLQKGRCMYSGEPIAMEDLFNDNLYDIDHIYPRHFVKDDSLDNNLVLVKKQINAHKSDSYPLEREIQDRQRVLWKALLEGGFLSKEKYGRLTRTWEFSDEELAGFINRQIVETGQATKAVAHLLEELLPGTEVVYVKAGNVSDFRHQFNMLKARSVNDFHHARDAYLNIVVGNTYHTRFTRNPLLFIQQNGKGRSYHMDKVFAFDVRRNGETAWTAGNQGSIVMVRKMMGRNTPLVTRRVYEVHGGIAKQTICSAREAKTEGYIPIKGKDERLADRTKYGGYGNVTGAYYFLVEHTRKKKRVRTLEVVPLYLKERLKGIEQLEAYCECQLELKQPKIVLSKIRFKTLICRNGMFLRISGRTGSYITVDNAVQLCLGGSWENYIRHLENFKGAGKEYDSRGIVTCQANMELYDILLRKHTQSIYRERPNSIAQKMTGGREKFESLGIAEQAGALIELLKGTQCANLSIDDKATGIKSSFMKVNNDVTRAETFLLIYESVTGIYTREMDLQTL

[2] = system: T2, OMNI-136 (metagenomic, unknown); settings: TXTL; PAM NNDRCNAA
T2 sequence: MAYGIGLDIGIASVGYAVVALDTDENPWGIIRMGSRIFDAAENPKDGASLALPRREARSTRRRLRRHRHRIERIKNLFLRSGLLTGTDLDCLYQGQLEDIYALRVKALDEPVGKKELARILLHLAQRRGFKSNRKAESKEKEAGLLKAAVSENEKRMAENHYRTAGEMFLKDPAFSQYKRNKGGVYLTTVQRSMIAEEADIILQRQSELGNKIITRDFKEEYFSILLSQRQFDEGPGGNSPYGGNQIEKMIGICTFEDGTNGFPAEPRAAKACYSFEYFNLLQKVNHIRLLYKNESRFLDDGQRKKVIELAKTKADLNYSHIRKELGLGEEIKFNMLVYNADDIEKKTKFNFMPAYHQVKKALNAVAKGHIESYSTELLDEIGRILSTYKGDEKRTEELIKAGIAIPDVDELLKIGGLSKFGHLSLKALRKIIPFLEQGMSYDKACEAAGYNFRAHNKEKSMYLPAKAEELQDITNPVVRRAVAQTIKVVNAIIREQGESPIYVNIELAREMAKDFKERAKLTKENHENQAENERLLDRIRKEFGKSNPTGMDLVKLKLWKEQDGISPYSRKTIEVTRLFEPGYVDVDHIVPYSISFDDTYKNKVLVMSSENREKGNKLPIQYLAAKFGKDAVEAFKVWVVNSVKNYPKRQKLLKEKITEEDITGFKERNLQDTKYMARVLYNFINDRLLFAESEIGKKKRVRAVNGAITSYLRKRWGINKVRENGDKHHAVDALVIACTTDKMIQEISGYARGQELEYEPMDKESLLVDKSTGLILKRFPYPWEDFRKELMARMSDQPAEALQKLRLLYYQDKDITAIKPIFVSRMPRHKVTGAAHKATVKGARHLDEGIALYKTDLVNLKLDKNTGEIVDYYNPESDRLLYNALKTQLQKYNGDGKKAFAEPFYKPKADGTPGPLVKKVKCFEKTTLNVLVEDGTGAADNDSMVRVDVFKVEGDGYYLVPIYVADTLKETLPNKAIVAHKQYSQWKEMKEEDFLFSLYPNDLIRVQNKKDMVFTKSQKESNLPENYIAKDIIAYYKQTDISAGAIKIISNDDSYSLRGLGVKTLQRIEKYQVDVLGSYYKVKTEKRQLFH

[3] = system: T3, OMNI-92 (metagenomic, unknown); settings: TXTL; PAM NNNNRYGA
T3 sequence: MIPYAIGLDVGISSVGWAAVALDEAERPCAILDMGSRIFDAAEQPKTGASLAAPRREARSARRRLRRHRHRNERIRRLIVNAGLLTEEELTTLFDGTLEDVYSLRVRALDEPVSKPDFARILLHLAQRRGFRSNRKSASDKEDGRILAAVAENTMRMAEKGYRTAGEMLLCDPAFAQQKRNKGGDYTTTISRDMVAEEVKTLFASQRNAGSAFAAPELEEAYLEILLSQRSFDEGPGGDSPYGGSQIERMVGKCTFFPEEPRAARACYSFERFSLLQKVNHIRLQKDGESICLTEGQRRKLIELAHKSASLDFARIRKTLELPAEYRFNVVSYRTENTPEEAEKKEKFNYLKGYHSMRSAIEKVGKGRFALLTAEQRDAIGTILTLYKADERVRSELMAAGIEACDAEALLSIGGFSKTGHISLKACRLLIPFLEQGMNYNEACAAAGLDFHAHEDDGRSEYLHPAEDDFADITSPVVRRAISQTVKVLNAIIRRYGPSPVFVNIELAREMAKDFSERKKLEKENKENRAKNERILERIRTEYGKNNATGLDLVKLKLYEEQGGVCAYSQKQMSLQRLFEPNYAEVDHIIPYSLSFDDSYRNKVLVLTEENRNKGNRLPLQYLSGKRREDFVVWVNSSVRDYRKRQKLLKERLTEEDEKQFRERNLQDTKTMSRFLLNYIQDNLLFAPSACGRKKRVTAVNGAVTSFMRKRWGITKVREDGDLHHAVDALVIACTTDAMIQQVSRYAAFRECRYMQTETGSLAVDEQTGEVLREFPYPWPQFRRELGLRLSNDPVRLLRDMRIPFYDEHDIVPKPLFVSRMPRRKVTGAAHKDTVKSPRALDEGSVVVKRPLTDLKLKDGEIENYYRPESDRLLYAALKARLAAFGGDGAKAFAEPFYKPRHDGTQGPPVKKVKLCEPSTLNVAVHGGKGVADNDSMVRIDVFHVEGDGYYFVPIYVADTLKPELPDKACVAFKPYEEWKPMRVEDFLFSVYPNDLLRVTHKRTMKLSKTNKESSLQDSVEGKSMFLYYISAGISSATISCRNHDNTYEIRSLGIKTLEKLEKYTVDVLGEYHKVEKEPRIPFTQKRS

[4] = system: T4, OMNI-135 (metagenomic, unknown); settings: TXTL; PAM NNWACCNN
T4 sequence: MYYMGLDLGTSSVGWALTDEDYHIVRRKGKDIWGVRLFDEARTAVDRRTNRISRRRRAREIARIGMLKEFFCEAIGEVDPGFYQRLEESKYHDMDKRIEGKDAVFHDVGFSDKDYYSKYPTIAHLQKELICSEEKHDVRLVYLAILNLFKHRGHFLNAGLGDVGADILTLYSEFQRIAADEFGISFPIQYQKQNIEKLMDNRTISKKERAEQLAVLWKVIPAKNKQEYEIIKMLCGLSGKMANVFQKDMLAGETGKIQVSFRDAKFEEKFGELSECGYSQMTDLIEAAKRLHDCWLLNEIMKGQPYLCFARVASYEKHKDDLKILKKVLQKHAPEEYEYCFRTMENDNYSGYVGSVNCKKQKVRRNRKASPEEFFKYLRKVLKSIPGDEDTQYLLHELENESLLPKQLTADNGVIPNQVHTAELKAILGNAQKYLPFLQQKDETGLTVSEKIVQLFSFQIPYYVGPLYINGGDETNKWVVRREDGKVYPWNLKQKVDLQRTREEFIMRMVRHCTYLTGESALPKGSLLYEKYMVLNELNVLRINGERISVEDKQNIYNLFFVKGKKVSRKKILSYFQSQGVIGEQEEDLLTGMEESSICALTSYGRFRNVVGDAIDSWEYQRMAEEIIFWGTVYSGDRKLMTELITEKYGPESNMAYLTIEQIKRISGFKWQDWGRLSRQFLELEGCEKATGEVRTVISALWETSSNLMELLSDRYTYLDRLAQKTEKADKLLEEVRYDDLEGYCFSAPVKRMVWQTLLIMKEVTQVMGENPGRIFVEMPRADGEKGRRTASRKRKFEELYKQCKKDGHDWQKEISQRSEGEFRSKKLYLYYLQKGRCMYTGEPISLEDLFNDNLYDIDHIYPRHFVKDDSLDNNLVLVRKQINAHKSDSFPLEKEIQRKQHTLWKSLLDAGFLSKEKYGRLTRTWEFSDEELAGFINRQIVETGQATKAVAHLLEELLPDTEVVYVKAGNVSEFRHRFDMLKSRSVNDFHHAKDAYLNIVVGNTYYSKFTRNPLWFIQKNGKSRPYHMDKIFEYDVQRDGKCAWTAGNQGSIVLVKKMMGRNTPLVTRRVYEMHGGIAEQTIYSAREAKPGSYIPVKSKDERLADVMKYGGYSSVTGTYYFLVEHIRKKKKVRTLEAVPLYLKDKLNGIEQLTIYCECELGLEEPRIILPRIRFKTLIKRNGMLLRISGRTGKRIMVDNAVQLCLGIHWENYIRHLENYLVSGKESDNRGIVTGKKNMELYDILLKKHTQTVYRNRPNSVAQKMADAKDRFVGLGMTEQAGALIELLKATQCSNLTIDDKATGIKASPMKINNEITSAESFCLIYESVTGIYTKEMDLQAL

Sequence: GGAAGAGCAGAGCCUUGGUCUCGUUUGAGAACCUUGUAAGAAAUUACAAGGUGAGUGCAAAUAAGGAUUUUUCCGAAAUCACUCCUCAUAAGAGUCCGCAUUGUGCGGUGAAAAGACUCUGCCAAGAGUCUUUUUU / GGAAGAGCAGAGCCTTGGTCTCNNNNNNNN / NNNNNNNNGAGACCAAGGCTCTGCTCTTCC [T2 sgRNA 33 V1 ; T2 protospacer + 8N PAM library (pbPOS T2)]
- activity (1-depletion score) [1]: 0.95

Sequence: GGAAGAGCAGAGCCUUGGUCUCGUUGUAGUUCCCUGUUAAUGAAAAUUUUCGGGUUACUAUGAUAAGGUAGAACACCGAAAAGCUCUAACGCCUUGCCAUUUGGUGAGGCGUUAUCUUUUUU / GGAAGAGCAGAGCCTTGGTCTCNNNNNNNN / NNNNNNNNGAGACCAAGGCTCTGCTCTTCC [T2 sgRNA 36 V1 ; T2 protospacer + 8N PAM library (pbPOS T2)]
- activity (1-depletion score) [2]: 0.97

Sequence: GGAAGAGCAGAGCCUUGGUCUCGUUGUAGUUCCCUGAUCGUGAAAACGAUCAGGUUGCUACAAUAAGGUAGUACACCGAAGAGCUCUAACGCCCCGUUUUGCGGGGCGUUAUCUCUUUUUUU / GGAAGAGCAGAGCCTTGGTCTCNNNNNNNN / NNNNNNNNGAGACCAAGGCTCTGCTCTTCC [T2 sgRNA 3 V1 ; T2 protospacer + 8N PAM library (pbPOS T2)]
- activity (1-depletion score) [3]: 0.97

Sequence: GGAAGAGCAGAGCCUUGGUCUCGUUUGAGAACCUUGUAAGAAAUUACAAGGUGAGUGCAAAUAAGGAUUUUUCCGAAAUCACUCCUCAUGGAUGUCCGCAUUGUGCGGUGAAAAAGACUCUGUUUAGAGUCUUUUUU / GGAAGAGCAGAGCCTTGGTCTCNNNNNNNN / NNNNNNNNGAGACCAAGGCTCTGCTCTTCC [T2 sgRNA 35 V1 ; T2 protospacer + 8N PAM library (pbPOS T2)]
- activity (1-depletion score) [4]: 0.95

Reference: patent publication US20240425885
